According to patent US20230416345A1, “NEW TYPE II COLLAGEN BINDING PROTEINS” (Navigo Proteins GmbH, priority 2020, published 2023):

T1: human collagen type III (Homo sapiens, UniProt P02461)
T1 construct: purchased Abcam ab7535
T1 sequence (P02461 154-1221 limits assumed): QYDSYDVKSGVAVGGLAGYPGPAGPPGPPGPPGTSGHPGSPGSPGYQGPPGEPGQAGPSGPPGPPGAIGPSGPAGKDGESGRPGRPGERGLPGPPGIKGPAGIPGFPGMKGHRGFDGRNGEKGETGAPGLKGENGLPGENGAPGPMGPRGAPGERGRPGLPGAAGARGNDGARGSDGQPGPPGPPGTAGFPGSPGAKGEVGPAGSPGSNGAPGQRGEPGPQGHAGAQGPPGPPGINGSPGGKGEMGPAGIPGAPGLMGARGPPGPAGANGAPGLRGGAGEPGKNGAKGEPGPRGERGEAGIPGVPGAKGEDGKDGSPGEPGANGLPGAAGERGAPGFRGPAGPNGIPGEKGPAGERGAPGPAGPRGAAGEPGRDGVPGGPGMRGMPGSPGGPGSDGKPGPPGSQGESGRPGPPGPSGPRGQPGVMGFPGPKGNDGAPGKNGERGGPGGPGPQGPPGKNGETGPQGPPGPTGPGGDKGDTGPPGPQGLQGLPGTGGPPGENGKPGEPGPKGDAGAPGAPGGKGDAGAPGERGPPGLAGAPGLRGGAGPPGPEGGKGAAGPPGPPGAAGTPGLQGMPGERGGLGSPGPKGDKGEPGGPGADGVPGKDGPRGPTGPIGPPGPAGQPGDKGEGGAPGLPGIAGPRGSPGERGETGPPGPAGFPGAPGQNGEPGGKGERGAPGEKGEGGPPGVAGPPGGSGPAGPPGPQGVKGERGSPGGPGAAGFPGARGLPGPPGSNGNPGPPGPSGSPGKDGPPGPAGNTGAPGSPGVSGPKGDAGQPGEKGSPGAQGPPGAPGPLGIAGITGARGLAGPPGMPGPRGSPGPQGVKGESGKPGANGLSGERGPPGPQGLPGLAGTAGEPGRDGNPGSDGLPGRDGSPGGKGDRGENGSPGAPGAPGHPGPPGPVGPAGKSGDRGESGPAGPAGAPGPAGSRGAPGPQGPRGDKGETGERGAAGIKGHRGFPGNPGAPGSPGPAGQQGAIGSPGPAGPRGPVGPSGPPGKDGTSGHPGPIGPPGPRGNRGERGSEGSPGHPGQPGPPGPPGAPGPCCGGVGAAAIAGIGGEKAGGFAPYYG

T2: Type III collagen (Homo sapiens, UniProt P02461)
T2 sequence (P02461 154-1221 limits assumed): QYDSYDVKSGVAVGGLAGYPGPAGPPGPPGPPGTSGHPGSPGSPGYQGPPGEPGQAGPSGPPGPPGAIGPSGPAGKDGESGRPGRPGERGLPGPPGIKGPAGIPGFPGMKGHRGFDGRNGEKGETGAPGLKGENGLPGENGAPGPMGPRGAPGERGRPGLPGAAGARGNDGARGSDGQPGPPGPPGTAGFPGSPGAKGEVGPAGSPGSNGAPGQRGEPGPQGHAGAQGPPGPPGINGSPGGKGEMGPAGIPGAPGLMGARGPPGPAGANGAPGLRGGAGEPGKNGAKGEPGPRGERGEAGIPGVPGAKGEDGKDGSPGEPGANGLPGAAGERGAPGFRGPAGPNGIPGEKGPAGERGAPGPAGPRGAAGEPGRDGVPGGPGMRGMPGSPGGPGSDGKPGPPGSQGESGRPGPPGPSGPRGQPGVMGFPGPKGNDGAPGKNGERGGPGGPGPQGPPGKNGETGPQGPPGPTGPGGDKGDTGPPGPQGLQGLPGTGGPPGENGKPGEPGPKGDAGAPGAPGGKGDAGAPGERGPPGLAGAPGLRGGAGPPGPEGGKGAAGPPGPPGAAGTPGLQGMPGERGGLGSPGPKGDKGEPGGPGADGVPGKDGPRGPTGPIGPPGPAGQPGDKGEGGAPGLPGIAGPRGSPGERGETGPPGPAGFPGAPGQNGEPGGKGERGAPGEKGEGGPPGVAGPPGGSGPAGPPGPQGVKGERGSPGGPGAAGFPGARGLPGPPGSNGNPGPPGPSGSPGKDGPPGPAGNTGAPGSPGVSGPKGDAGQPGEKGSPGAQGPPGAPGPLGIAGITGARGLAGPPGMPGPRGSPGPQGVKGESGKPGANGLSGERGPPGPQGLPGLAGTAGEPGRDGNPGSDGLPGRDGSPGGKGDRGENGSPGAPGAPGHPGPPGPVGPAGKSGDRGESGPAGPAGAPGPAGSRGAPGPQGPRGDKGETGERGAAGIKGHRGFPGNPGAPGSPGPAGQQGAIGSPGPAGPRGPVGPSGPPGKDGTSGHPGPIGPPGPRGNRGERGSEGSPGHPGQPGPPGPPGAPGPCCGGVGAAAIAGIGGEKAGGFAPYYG


What was measured:
[1] = Soluble expression in Escherichia coli BL21(DE3); type: physicochemical; conditions: expression in E. coli BL21(DE3)
Protocol: Variants with affinity tag were expressed in Escherichia coli BL21(DE3) using a low copy plasmid system under regulation of a T7 promoter. Proteins were produced in soluble form after induction by lactose included in the medium (autoinduction medium). BL21 (DE3) competent cells were transformed with the expression plasmid, spread onto selective agar plates (kanamycin) and incubated overnight at 37° C. Precultures were inoculated from single colony in 3 ml 2×YT medium supplemented with 50 μg/ml kanamycin and cultured for 6 hours at 37° C. at 200 rpm in a conventional orbital shaker in culture tubes. […] Cultures were transferred to an orbital shaker and incubated at 30° C. and 200 rpm. Recombinant protein expression was induced by metabolizing glucose and subsequently allowing lactose to enter the cells. Cells were grown overnight for approx. 17 hours to reach a final OD600 of about 2-4. Before the harvest, the OD600 was measured, samples adjusted to 0.6/OD600 were withdrawn, pelleted and frozen at −20° C. To collect biomass cells were centrifuged at 12000×g for 15 min at 22° C. Pellets were weighed (wet weight). Cells were stored at −20° C. before processing.
(§1) Proteins with affinity tag were purified by affinity chromatography and size exclusion. After affinity chromatography purification using Strep-Tactin Superflow high capacity cartridges (IBA Lifesciences) a size exclusion chromatography (SEC) was performed using an Äkta system and a Superdex™ 200 HiLoad 16/600 column (Cytiva). Fused variants with Aflibercept were purified via MabSelect SuRe (Cytiva) affinity chromatography followed by a size exclusion chromatography (SEC) using an Äkta system and a Superdex™ 200 HiLoad 16/600 column (Cytiva). All chromatography processing steps were carried out on AKTA systems using matrices from Cytiva. Homogenous species of all purified ligands were obtained; no aggregation was detected. Following SOS-PAGE analysis positive fractions were pooled and their protein concentrations were measured. Further analysis included SOS-PAGE, SE-HPLC and RP-HPLC. Protein concentrations were determined by absorbance measurement at 280 nm using the molar absorbent coefficient. Reversed phase chromatography (RP-HPLC) was performed using a Dionex HPLC system and a PLRP-S (5 μm, 300 Å) column (Agilent). Analytic size exclusion chromatography (SE-HPLC) was performed using a Dionex HPLC system and a Superdex200 increase 5/150 GL (Cytiva). Binding of Collagen II was evaluated by SPR measurements using a Biacore 3000 system. Purified Collagen II was obtained from Chondrex.inc and VEGF-165 was obtained from Millipore. Targets were immobilized on a CM5-Sensor via NHS/EDC chemistry (immobilization level ˜1000 RU). Binding molecules were injected at different concentration and affinity was calculated by langmuir 1:1 binding model.

[2] = target: T3, human collagen type V (h Col V) (Homo sapiens, UniProt P05997+P20908); test: ELISA specificity vs human collagen type V; type: binding
T3 construct: purchased Abcam ab7537
Protocol: (§2) High binding plates (Greiner, 781061) were immobilized with 2.5 μg/ml recombinant human collagen type II (h Col II, Chondrex, CHX-20051), rabbit collagen type II (rbCol II, prepared from rabbit eyes), porcine collagen type II (p Col II, prepared from porcine eyes), human collagen type I, (h Col I, Sigma, C5483-1MG), human collagen type V (h Col V, Abcam, ab7537), human collagen type III (h Col Ill, Abcam, ab7535) and 67B89 (domain of fibronectin, produced in E. coli) respectively over night at 4° C. ELISA-plates were washed 3 times with PBST (PBS+ 0.1% Tween) and blocked with 3% BSA/0.5% Tween/PBS 2 h at RT. After washing with PBST, dilution series of 1.1 μM to 7×10^−4 nM of dimers (CID 211999, CID 212000), dilution series of 100 nM to 7×10^−6 nM of tetramers (CID 212001 and CID 212704) and dilution series of 10 μM to 2 nM of dimer (CID 212705) were incubated on ELISA-plates 1 h at rt. Plates were washed with PBST and incubated with biotinylated anti-StrepTag-ab (Antikörper-online, ABIN1573895) with a dilution of 1:10.000 for 1 h at rt. The binding was visualized with a-rabbit-IgG-HRP (Sigma, A9169) with a dilution of 1:10.000 and as substrate TMB Plus von KEM EN TEC Diagnostic, Kat-Nr. 4395.

[3] = target: T4, 67B89 (domain of fibronectin) (Homo sapiens, UniProt P02751); test: ELISA specificity vs 67B89; type: binding
T4 construct: unrelated fibronectin domain EDB (67B89) could be observed; made in house; host or cells: E. coli
Protocol: as §2

[4] = target: T1, human collagen type III; test: ELISA specificity vs human collagen type III; type: binding
Protocol: as §2

[5] = target: T5, recombinant human collagen type II (h Col II) (Homo sapiens, UniProt P02458); test: KD-determination by ELISA vs human collagen type II; type: binding; conditions: for binding affinity (KD) to type II collagen by ELISA, in words: tetramers: of different species
T5 construct: purchased Chondrex CHX-20051
Protocol: as §2

[6] = target: T6, human collagen type I (h Col I) (Homo sapiens, UniProt P02452+P08123); test: ELISA specificity vs human collagen type I; type: binding
T6 construct: purchased Sigma C5483-1MG
Protocol: as §2

[7] = target: T7, hCol2 (human Type II collagen) (Homo sapiens, UniProt P02458); test: Binding analysis by SPR (Biacore 3000) vs human type II collagen; conditions: for Affinity [SPR] vs hCol2: dimers or tetramers, Langmuir 1:1 model; for Binding to type II collagen via SPR: FIG. 3, FIG. 4A
T7 construct: purchased Chondrex
Protocol: as §1
(§3) The purified proteins were immobilized on a CM-5 sensor chip (GE Healthcare) using NHS/EDC after PDEA activation resulting in 110-140 RU with a Biacore 3000 system (GE Healthcare). The chip was equilibrated with SPR running buffer (PBS 0.05% Tween pH 7.3). Upon binding, target analyte was accumulated on the surface increasing the refractive index. This change in the refractive index was measured in real time and plotted as response or resonance units versus time. The analytes were applied to the chip in serial dilutions with a flow rate of 30 μl/min. The association was performed for 120 seconds and the dissociation for 120 seconds. After each run, the chip surface was regenerated with 30 μl regeneration buffer (10 mM glycine pH 2.0) and equilibrated with running buffer.
(§4) Binding studies were carried out by the use of the BIAcore 3000 (GE Healthcare); data evaluation was operated via the BIAevaluation 3.0 software, provided by the manufacturer, using the Langmuir 1:1 model (RI=0). Evaluated dissociation constants (KD) were standardized against the immobilized protein and indicated. Shown is the change in refractive index measured in real time and plotted as response or resonance unit [RU] versus time [sec].

[8] = target: Type I collagen (Homo sapiens, UniProt P02452+P08123); test: SPR specificity vs Type I collagen; type: binding
Protocol: as §3, §4

[9] = target: T8, porcine collagen type II (p Col II) (Sus scrofa, UniProt A0A287A2Q7); test: KD-determination by ELISA vs porcine collagen type II; type: binding
T8 construct: porcine collagen type II (p Col II, prepared from porcine eyes); from tissue; host or cells: porcine eyes
Protocol: as §2

[10] = target: T2, Type III collagen; test: SPR specificity vs Type III collagen; type: binding
Protocol: as §3, §4

[11] = target: Type V collagen (Homo sapiens, UniProt P05997+P20908); test: SPR specificity vs Type V collagen; type: binding
Protocol: as §3, §4

T7 sequence (P02458 182-1241): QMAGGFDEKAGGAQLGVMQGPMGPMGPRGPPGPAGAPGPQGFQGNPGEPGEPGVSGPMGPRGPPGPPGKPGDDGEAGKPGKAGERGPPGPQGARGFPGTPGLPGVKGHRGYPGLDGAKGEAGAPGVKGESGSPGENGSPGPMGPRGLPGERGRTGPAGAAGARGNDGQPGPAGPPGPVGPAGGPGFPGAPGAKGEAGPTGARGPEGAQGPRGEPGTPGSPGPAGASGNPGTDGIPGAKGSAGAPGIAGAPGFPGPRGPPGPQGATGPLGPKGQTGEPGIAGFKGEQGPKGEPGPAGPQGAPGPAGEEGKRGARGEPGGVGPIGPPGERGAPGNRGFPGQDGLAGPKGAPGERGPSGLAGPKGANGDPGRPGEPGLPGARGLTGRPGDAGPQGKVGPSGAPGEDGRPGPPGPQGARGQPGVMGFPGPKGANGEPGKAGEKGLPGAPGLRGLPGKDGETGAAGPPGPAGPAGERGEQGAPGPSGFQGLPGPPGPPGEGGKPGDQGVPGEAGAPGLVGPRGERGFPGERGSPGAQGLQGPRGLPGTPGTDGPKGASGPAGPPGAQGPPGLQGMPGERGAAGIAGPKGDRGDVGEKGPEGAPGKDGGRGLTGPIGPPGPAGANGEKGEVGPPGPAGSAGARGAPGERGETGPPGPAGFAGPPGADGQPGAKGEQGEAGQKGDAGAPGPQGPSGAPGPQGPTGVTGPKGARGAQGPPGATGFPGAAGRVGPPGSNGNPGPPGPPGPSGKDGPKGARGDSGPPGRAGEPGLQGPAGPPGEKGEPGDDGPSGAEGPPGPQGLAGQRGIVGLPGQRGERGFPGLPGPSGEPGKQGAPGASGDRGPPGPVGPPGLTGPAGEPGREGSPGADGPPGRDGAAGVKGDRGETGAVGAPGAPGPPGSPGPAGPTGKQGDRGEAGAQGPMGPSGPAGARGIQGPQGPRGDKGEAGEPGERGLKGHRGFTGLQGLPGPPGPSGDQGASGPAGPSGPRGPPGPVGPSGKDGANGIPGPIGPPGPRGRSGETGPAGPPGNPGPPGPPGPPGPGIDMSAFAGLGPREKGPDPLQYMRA
T5 sequence (P02458 182-1241): as above
T4 sequence (P02751 1089-1540 limits assumed): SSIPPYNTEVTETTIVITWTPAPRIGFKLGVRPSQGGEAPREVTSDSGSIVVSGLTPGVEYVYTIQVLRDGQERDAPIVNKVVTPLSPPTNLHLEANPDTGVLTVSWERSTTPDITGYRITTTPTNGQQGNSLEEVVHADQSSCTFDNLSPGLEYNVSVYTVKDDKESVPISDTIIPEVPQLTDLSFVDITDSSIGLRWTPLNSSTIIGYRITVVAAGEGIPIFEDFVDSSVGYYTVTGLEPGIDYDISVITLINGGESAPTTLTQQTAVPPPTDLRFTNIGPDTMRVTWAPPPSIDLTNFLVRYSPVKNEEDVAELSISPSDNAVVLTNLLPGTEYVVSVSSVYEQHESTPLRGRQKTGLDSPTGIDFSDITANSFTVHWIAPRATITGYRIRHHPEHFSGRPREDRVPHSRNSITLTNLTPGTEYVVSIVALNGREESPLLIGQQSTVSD
T6 sequence (P02452 162-1218 limits assumed): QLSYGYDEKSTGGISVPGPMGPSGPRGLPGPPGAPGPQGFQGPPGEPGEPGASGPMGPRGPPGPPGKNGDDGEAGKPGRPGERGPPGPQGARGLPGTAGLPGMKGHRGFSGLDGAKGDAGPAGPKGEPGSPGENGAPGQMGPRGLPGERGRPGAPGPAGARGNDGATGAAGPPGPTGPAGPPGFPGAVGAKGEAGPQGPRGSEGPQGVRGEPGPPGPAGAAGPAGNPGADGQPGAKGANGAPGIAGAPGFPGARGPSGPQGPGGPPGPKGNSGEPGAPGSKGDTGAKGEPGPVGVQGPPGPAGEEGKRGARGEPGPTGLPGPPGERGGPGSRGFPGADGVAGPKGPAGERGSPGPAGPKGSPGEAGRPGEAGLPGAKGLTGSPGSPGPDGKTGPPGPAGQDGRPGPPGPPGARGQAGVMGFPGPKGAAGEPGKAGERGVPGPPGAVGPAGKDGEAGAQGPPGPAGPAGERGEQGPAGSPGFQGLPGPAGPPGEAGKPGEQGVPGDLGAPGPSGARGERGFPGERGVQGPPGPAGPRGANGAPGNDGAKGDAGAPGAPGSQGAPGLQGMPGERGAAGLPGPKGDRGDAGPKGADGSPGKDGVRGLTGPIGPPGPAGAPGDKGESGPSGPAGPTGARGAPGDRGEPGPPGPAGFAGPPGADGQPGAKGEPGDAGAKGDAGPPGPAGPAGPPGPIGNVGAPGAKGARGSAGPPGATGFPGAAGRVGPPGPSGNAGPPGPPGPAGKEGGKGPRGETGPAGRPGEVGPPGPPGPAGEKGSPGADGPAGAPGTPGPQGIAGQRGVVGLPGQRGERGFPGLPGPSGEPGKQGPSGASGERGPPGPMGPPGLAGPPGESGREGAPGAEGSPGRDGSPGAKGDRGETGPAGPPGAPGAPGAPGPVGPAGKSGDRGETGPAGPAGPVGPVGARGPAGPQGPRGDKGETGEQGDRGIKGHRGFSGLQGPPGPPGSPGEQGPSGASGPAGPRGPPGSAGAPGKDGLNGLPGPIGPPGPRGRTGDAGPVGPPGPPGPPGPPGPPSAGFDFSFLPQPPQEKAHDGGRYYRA
T6 sequence (P08123 80-1119 limits assumed): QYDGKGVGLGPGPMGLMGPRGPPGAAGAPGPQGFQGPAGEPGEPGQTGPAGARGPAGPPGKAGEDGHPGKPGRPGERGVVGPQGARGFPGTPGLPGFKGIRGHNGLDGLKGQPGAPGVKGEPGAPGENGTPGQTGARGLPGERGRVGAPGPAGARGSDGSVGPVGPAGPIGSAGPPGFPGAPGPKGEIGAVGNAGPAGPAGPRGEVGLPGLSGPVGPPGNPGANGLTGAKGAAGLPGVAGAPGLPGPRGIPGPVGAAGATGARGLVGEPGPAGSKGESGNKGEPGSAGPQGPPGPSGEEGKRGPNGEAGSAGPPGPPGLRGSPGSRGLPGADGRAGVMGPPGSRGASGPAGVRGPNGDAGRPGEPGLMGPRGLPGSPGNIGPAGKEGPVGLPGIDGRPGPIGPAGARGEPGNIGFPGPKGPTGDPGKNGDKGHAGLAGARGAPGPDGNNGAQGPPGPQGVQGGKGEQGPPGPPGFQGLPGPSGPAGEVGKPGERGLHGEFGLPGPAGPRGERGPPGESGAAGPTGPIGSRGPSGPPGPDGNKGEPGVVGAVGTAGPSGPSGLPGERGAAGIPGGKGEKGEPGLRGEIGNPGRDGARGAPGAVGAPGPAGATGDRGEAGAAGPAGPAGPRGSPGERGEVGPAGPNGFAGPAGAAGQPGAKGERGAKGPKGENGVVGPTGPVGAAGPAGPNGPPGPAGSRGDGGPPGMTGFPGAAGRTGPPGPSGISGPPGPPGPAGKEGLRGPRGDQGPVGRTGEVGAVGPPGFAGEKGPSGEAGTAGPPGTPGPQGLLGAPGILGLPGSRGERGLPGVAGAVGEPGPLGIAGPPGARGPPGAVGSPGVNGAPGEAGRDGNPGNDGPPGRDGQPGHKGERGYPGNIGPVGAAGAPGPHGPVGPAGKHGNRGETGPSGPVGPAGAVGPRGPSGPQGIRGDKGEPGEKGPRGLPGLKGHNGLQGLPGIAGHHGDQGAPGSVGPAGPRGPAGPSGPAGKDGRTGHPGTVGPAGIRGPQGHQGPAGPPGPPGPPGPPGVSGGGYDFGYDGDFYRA
T8 sequence (A0A287A2Q7 26-1486): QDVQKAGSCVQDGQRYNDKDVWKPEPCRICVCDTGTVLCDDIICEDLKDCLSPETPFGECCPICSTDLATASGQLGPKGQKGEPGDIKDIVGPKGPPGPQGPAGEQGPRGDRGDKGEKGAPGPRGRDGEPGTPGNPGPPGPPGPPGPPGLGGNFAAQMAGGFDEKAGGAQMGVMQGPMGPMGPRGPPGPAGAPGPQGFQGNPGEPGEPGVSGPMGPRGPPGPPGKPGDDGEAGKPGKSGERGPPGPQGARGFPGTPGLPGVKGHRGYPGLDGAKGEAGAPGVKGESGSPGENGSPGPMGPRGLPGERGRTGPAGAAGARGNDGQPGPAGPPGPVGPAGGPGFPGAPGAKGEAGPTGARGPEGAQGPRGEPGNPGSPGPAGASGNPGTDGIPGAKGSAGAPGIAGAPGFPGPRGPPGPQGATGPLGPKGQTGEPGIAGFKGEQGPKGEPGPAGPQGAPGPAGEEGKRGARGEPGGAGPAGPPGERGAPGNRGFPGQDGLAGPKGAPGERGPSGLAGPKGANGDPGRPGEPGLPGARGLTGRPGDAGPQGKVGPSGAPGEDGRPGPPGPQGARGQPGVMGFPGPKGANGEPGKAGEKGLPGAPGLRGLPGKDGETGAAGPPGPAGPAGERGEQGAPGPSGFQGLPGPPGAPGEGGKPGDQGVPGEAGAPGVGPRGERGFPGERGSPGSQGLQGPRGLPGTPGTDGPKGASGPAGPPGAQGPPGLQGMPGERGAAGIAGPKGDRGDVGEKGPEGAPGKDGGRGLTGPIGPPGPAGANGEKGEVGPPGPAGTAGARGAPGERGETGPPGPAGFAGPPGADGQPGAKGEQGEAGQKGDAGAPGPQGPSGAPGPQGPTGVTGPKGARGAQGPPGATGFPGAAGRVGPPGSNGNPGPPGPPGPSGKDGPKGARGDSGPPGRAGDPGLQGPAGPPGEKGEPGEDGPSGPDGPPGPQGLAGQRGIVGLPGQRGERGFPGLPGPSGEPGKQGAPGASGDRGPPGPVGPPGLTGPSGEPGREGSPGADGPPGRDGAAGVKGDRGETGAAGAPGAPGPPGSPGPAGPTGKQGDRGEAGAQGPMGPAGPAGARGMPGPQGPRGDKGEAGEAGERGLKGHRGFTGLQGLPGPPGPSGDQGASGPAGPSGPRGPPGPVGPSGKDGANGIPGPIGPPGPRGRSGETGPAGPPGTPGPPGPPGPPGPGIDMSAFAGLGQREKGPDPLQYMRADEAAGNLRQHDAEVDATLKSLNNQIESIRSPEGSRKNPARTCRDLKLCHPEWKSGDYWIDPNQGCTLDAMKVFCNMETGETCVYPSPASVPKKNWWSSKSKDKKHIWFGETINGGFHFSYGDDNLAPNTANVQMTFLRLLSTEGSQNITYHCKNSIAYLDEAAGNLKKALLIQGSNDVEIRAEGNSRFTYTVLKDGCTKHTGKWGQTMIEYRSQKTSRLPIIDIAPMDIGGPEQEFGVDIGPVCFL

Row | binding to type V collagen (ELISA) [2] | binding to domain of fibronectin (67B89) (ELISA) [3] | binding to type III collagen (ELISA) [4] | binding affinity (KD) to type II collagen by ELISA, in words [5] | binding to type I collagen (ELISA) [6] | Affinity [SPR] vs hCol2 [7] [nM] | Binding to Type I collagen (SPR) [8] | specific binding vs porcine type II collagen (ELISA) [9] [µM] | Binding to Type III collagen (SPR) [10] | binding affinity (KD) to human type II collagen (ELISA) [5] [nM] | Binding to Type V collagen (SPR) [11] | Kd ([7]; multi-cycle Biacore measurement, FIG. 4B, read-out: KD for Type II collagen, equilibrium fit of amplitudes) [nM] | Molecule | Solubility Soluble expression [1] [%] | Binding to type II collagen via SPR [7]
1 | No unspecific binding | No unspecific binding | No unspecific binding | 1-2-digit nM | No unspecific binding | 127 |  |  |  |  |  |  | CID 211999: dimer of SEQ ID NO: 2 (dimer of directly joint monomers) (protein, Col2 binding protein (dimer of 211261) (CID211999)) IAAKFDEAQSAADSEILHLPNLTEQQRHYFRRWLSDDPSVSTHILTQAQHLNDDQAPKIAAKFDEAQSAADSEILHLPNLTEQQRHYFRRWLSDDPSVSTHILTQAQHLNDDQAPKSAWSHPQFEK | 100 | 
2 | No unspecific binding | No unspecific binding | No unspecific binding | 3 digit-picomolar | No unspecific binding | <0.5 |  |  |  |  |  |  | CID 212001: tetramer of SEQ ID NO: 2 (protein, Col2 binding protein (tetramer of 211261) (CID212001)) IAAKFDEAQSAADSEILHLPNLTEQQRHYFRRWLSDDPSVSTHILTQAQHLNDDQAPKIAAKFDEAQSAADSEILHLPNLTEQQRHYFRRWLSDDPSVSTHILTQAQHLNDDQAPKIAAKFDEAQSAADSEILHLPNLTEQQRHYFRRWLSDDPSVSTHILTQAQHLNDDQAPKIAAKFDEAQSAADSEILHLPNLTEQQRHYFRRWLSDDPSVSTHILTQAQHLNDDQAPKSAWSHPQFEK | 100 | binding to type II collagen with high affinity
3 |  |  |  |  |  | 784 | no binding | 0.7 | no binding | 700 | no binding | 780 | CID 211519: homodimer of SEQ ID NO: 11 (protein, Col2 binding protein (dimer) 211519) IAAKFDEAQQAAFYEILHLPNLTEQQRNYFIQWLRDDPSVSPTVLGTAQQLNDSQAPKIAAKFDEAQQAAFYEILHLPNLTEQQRNYFIQWLRDDPSVSPTVLGTAQQLNDSQAPK | 95 | binding to Type II collagen with transient binding signal
